Patent US20240352438A1, “MEANS AND METHODS FOR DETOXIFYING OCHRATOXIN A” (DSM Austria GmbH, priority 2021, published 2024)

What was measured:
[1] = OTA detoxification activity assay (specific activity, fluorescence reduction ex/em 390/450 nm); type: biochemical; details: for Specific OTA detoxification activities in U/g at pH 6.0 / Specific OTA detoxification activities in U/g at pH 7.5: 37° C., 200 ng/mL OTA, 100 mM sodium phosphate buffer; for Specific OTA detoxification activities in % compared to the enzyme of SEQ ID NO: 2, pH 6.0 / Specific OTA detoxification activities in % compared to the enzyme of SEQ ID NO: 2, pH 7.5: SEQ ID NO: 2 = 100%
Outline: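 Recombinant enzyme preparation with 200 ng/mL OTA in 100 mM sodium phosphate, at pH 6.0 and pH 7.5, 37° C. Degradation followed as the fall in fluorescence at ex/em 390/450 nm. Specific activity taken from the initial linear slope; one unit degrades 1 μmol OTA per min at a starting OTA of […].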

[2] = Thermostability assay: residual OTA detoxification activity after 10 min incubation at 45-99° C. (T50); type: physicochemical; details: 0.1 mg/mL protein in 20 mM Tris-HCl pH 7.5, residual OTA detoxification activity relative to 4° C. reference aliquot
Outline: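 Purified enzyme at 0.1 mg/mL in 20 mM Tris-HCl pH 7.5 was heated 10 min at 45–99 °C, then held at 4 °C. Residual OTA detoxification activity was expressed relative to an aliquot kept at 4 °C throughout; T50 is the temperature range giving 50% activity loss.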

Molecule	Specific OTA detoxification activities in U/g at pH 6.0 [1] [U/g]	Specific OTA detoxification activities in U/g at pH 7.5 [1] [U/g]	T50 (temperature at which 50% of the initial activity was maintained) [2]	Specific OTA detoxification activities in % compared to the enzyme of SEQ ID NO: 2, pH 6.0 [1] [%]	Specific OTA detoxification activities in % compared to the enzyme of SEQ ID NO: 2, pH 7.5 [1] [%]
2 (protein, polypeptide 2) MYSLAIRNGIVFDGEKFIGKTNIYVDGDKIVKITNERLDAKEEVNAEGYFVMPGLIDAHLHLTGIRGGSLLMGYLLDDPRTRLLRAANWARELLMAGFTTVRDCGEPNSIILRNAINEGIIPGPRIIAAGSPITQTFGHAELSHSLPLEWSIQLGFGEICDGVDECIKAARKVLRSGADFIKIMATGGVLSERDRPEWPQLTPEEMSAIVREAEKVGTYVAAHAHGDKGARIAVEAGVRTIEHGSLITEETVKLMAEKGVSLTPTLSIQELIYKYGKQMGIDPWGLEKIGQVREGVINSIKLARKYGVMILAGTDLGFKTGLDIDMGKNWVEVKLLVELGGLSSEEALRAATGNASKMLRLNTGIIREGYLADIVLINGNPLENINDIARVSTVIKGGKVTVENGKLI	0.61	0.73	>95 °C		
40 (protein, exemplary polypeptide) MYSLAIRNGIVFDGEKFIGKTNIYVDGDKIVKITNERLDAKEEVNAEGYFVMPGLIDAHLHLTGIRGGSLLMGYLLDDPRTRLLRAANWARELLMAGFTTVRDCGEPNSIILRNAINEGIIPGPRIIAAGSPITQTFGHAELSHSLPLEWSIQLGFGEICDGVDECIKAARKVLRSGADFIKIMATGGVLSERDRPEWPQLTPEEMSAIVREAEKVGTYVAAHAHGDKGARIAVEAGVRTIEHGSLITEETVKLMAEKGVSLTPTLSIIELIYKYGKQMGIDPWGLEKIGQVREGVINSIKLARKYGVMILAGTDLGFKTGLDIDMGKNWVEVKLLVELGGLSSEEALRAATGNASKMLRLNTGIIREGYLADIVLINGNPLENINDIARVSTVIKGGKVTVENGKLI			>99 °C	15.00	61.00
39 (protein, exemplary polypeptide) MYSLAIRNGIVFDGEKFIGKTNIYVDGDKIVKITNERLDAKEEVNAEGYFVMPGLIDAHLHLTGIRGGSLLMGYLLDDPRTRLLRAANWARELLMAGFTTVRDCGEPNSIILRNAINEGIIPGPRIIAAGSPITQTFGHAELSHSLPLEWSIQLGFGEICDGVDECIKAARKVLRSGADFIKIMATGGVLSERDRPEWPQLTPEEMSAIVREAEKVGTYVAAHAHGDKGARIAVEAGVRTIEHGSLITEETVKLMAEKGVSLTPTLSAQELIYKYGKQMGIDPWGLEKIGQVREGVINSIKLARKYGVMILAGTDLGFKTGLDIDMGKNWVEVKLLVELGGLSSEEALRAATGNASKMLRLNTGIIREGYLADIVLINGNPLENINDIARVSTVIKGGKVTVENGKLI			>99 °C	8.00	15.00
41 (protein, exemplary polypeptide) MYSLAIRNGIVFDGEKFIGKTNIYVDGDKIVKITNERLDAKEEVNAEGYFVMPGLIDAHLHLTGIRGGSLLMGYLLDDPRTRLLRAANWARELLMAGFTTVRDCGEPNSIILRNAINEGIIPGPRIIAAGSPITQTFGHAELSHSLPLEWSIQLGFGEICDGVDECIKAARKVLRSGADFIKIMATGGVLSERDRPEWPQLTPEEMSAIVREAEKVGTYVAAHAHGDKGARIAVEAGVRTIEHGSLITEETVKLMAEKGVSLTPTLSIQELIYKVGKQMGIDPWGLEKIGQVREGVINSIKLARKYGVMILAGTDLGFKTGLDIDMGKNWVEVKLLVELGGLSSEEALRAATGNASKMLRLNTGIIREGYLADIVLINGNPLENINDIARVSTVIKGGKVTVENGKLI			99 °C	272.00	1551.00
17 (protein, polypeptide 3) MTTRLRILTASLALLAANACAADAAPSTPHTVVLRAARMFDGASGKIVEHPQLTIVGNKIVRIAQGKEEDNRTGIPAGADVIDLGDATLLPGFIDAHVHLSGQSSDNWYGDFFDNMMRFPAEQALYGAYYARITLEAGFTSVRDVGSTDWIALGLRNAIDAGKVPGPRMLVSNYAVGSTGGHADQDPIPPQKLAPAGPLQGVCNGPEECRAAVRYQIKYGANVIKFMPSGGVLSLSDPVDAPELSQDEMNAVIGEAHAWGRKVAAHAHGDKAAKMAVTAGVDSIEHGSFLEDDTLRMMKAKGVYLVPTISAIAHVEEKIATFPSVIAEKGRAAASHSRQMFRHAVQIGVPIALGTDAGVGAHGTNAREFRYMVDNGLTPAQSLMAGTANAARLLGTFDRVGTLEAGKLADVVAVPGNPIADITVTERPVFVMKDGVVVRRGAVR	11.65	28.44	65-75 °C		
1 (protein, polypeptide 1) APAAPHTVVLRAARMFDGASGKLVDHPQLTIVGNKIVRIAQGDKAEVPAGAEVVDLGDATLLPGFIDAHVHLSGQSSDNWYGDFFDNMMRFPAEQALYGAYYARITLEAGFTSVRDVGSTDWVALGLRNAIDAGKVPGPRMLVSNYAVGSTGGHADQDPIPPHKLPLAGPLQGVCNGPEECRAAVRYQIKYGANVIKFMPSGGVLSLSDPVDAPELSQDEMNAVIGESHAWGRKVAAHAHGDKAAKMAVAAGVDSIEHGSFIEDDTLRAMKAKNVYLVPTISAIAHVEEKIGTFPPVIAEKGRAAAAHLRQTFRHAVQIGVPIALGTDAGVGAHGSNAREFRYMVENGLTPAQALLAGTANAARLLGTFDRVGTLEAGKLADVVAVPGNPIADITVTERPLFVMKDGVVVRRDAVR	99.00	191.89	65-75 °C		
18 (protein, polypeptide 4) MPPMRTRTRILTASLALLAANAWAADAMPSTPHTVVLRAARMFDGASGKLVEHPQLTIVGNKIVRVAQDDKAAVPAGADVIDLGDATLLPGFIDAHVHLSGQSSDNWYGDFFDNMMRFPAEQALYGAWYARITLEAGFTSVRDVGSTDWIALGLRNAIDAGKVPGPRMLVSNYAIGSTGGHADQDPIPPQKLAPAGPLQGVCNGPDECRAAVRYQIKYGANVIKFMPSGGVLSLSDPVDAPELTQEEMNAVVGEAHAWGRKVAAHAHGDKAAKMAVAAGVDSIEHGSFLEDDTLRMMKAKGVYLVPTISAVMHVEEKIATFPPVIAEKGRAAAAHVRQTFRHAVQIGVPIALGTDAGVGAHGTNAREFRYMVDNGMAPAQALLAGTSNAARLLGTIDRVGTLEAGKLADVVAVPGNPVADITVTERPVFVMKDGVVVRRGAVR	39.30	147.14	81-83 °C		
